Several values for one entry are separate records, joined by “and”; a condition that tells them apart may be missing. Equal values may be shown once.

As a reminder, the Kd is the equilibrium constant for the complex coming apart. In general, koff refers to a measure of how fast the partners let go of each other.

Experiment [1] concerns the target recombinant enolase of S. pneumoniae serotype 2 (ATCC 11733) (Streptococcus pneumoniae serotype 2 (ATCC 11733)) (UniProt Q97QS2). As to the kind of experiment: SPR; rEno immobilised by amine coupling on CM5 chip (BIAcore T200), VWF or A domains as analyte, PBS pH 7.4 with 0.05% Tween 20, 25°C, 10 μl/min, 1:1 Langmuir model. A general note: SPR reads the build-up and loss of mass on a sensor chip optically.

Experiment [2] deals with recombinant enolase protein (rEno) of S. pneumoniae serotype 2 (ATCC 11733) (Streptococcus pneumoniae serotype 2 (ATCC 11733)) (UniProt Q04KG2). As to the kind of experiment: SPR; rEno immobilised by amine coupling on CM5 chips (BIAcore T200); PBS pH 7.4 with 0.05% Tween 20, 25°C, 10 µl/min; analytes plasma VWF 0.625-10.0 µg/ml or VWF A1 domain 0.0612-1.0 µg/ml; 1:1 Langmuir model; values of the single independent kinetic runs.
Chain of recombinant enolase protein (rEno) of S. pneumoniae serotype 2 (ATCC 11733) (Streptococcus pneumoniae serotype 2 (ATCC 11733)) (Q04KG2 whole entry, the tested form may be a part): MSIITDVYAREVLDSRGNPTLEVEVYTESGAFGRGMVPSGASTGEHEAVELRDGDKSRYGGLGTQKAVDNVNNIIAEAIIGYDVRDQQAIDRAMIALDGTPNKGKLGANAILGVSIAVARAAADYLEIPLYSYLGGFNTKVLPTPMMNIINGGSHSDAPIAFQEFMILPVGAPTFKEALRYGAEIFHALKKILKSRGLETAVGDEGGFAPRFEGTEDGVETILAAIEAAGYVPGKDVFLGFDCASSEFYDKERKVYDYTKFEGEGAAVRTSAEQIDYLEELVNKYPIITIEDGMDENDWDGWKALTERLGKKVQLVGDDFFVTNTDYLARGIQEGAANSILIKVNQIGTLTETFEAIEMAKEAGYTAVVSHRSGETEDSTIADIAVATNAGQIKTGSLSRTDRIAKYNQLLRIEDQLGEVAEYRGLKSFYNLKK

The target of experiment [3] is T1, human plasma von Willebrand factor (human, UniProt P04275 764-2813).
T1 construct: von Willebrand factor, human, derived from plasma; called 'full length VWF' in the SPR methods, as against the single A domains; Glycoprotein from plasma that circulates as multimers; also called VWF; plasma VWF; source: bought: Merck Chemicals (human plasma VWF)
As to the kind of experiment: peptide or protein array; 141 overlapping 15mer peptides of enolase (offset three) on cellulose membrane, overlay with 2.0 μg/ml VWF, detected with anti-VWF antibody. The settings on record: both partners purified.

Chain of recombinant enolase of S. pneumoniae serotype 2 (ATCC 11733) (Streptococcus pneumoniae serotype 2 (ATCC 11733)) (Q97QS2 whole entry): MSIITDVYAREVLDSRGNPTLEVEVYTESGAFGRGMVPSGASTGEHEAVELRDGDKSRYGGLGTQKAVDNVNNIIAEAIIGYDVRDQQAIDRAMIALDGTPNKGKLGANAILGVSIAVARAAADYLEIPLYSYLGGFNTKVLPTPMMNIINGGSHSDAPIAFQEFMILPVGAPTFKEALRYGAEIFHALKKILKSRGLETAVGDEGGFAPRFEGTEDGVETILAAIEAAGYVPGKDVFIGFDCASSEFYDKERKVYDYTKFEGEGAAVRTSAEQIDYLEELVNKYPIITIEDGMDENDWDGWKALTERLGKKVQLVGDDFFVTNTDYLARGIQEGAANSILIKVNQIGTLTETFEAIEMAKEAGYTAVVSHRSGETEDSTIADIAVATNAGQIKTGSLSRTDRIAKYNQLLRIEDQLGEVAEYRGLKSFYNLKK

With “recombinant VWF domain A1 (domain or fragment)”, the equilibrium dissociation constant (Kd) in experiment [1] came out at 0.208 nM. Turning to “recombinant VWF domain A1 (from UniProt P04275 23-2813) (domain or fragment)”, in experiment [2], the equilibrium dissociation constant (Kd) is 2.18 nM and 1.79 nM and 0.585 nM; the koff was 0.00126 s⁻¹ and 0.00175 s⁻¹ and 0.0013 s⁻¹.

B1: enolase peptide 181YGAEIFHALKKILKS195 (peptide)
peptide: YGAEIFHALKKILKS
notes: residues 181-195 of the enolase of S. pneumoniae; one 15mer of the peptide spot array; Synthesised as a spot and held on the cellulose membrane; also called core peptide of region no; source: synthetic peptide, spot on an amino pegylated cellulose membrane
Regarding B1, in experiment [3], the binding result is “binds”.

(Values after publication PMC6443961, “Von Willebrand Factor Mediates Pneumococcal Aggregation and Adhesion in Blood Flow” (Frontiers in Microbiology, 2019).)
